According to publication PMC7509637 (Advanced Science, 2020):
Entries after “also recorded” stand apart in the source; their conditions may differ.

Tests used:
zebrafish larvae [1] = assay: Behavioral pathology of zebrafish larvae (Zebrabox); format: in vivo, zebrafish (AB, Danio rerio); settings: 2 d postinjection, 1 h observation
Description: Aβ (HFIP‐treated) was dissolved in PBS (pH 7.4) to make a stock solution. Aβ (100 × 10^−15 M) was injected into the cerebroventricular space of one week old zebrafish larvae. Aβ with FapCS was injected at a 10:1 molar ratio (Aβ:FapCS, 100 × 10^−15:10 × 10^−15 M). PBS alone and untreated larvae were used as negative controls. Zebrafish larvae were anesthetized by adding a few drops of tricaine (0.4%) in the petri dish. When larvae stopped to move in response to the tapping stimuli, the larvae were transferred to an injection template made from 1% agarose gel. Microinjection of Aβ was performed with a calibrated microneedle and pneumatic microinjection system (PV830 WPI), under a stereomicroscope. The injection pressure was set to 20 psi, the injection volume was 10 nL, and the injections were made with a micromanipulator. The tip of the needle was inserted into the ventricular space of larvae and penetration across the soft skin of dorsal tissue (central meeting point of both telencephalons) was not more than 0.3 mm. […]
Behavior of zebrafish larvae was observed by an automated zebrafish behavior recording system Zebrabox (Viewpoint). […] The trajectories of the zebrafish movements were also recorded by the instrument and all behavior measurements were done in a 96‐well plate with one larva per well. […]

Aβ = target: T1, Aβ (Homo sapiens, UniProt P05067); assay: TEM imaging of Aβ with FapC species or bLgS; settings: 12 h incubation, uranyl acetate negative stain
T1 construct: purchased Anaspec Inc
Description: Aβ incubated in the presence or absence of FapCS, FapC monomers, FapC fibrils or bLgS were subjected to TEM imaging. After incubation for 12 h, a drop of sample was applied on a glow‐discharged carbon‐coated copper grid. After 1 min, the sample was blotted and then negatively stained with uranyl acetate (1%) for 30 s. The dried grid was then imaged with a Technei F20 TEM at 200 kV. For AFM, a drop of sample was placed on freshly cleaved mica surface and rinsed with water after 2 min and dried with pressurized air. The sample was scanned with an AFM (Nanoscope VIII Multimode Scanning Force Microscopes, Bruker), covered with an acoustic hood to minimize the vibrational noise. Images were acquired under the tapping mode with a silicon nitride cantilever (Bruker). AFM images were processed with Nanoscope Analysis 1.5 software to flatten the background and to calculate the statistical parameters.

zebrafish larvae [2] = assay: Congo red imaging of Aβ fibrillization in zebrafish larval brain; format: in vivo, zebrafish (AB, Danio rerio); settings: for Congo red fluorescence / Aβ fibrillization in larval brain (in words): 2 d postinjection
Description: Aβ (HFIP‐treated) was dissolved in PBS (pH 7.4) to make a stock solution. Aβ (100 × 10^−15 M) was injected into the cerebroventricular space of one week old zebrafish larvae. Aβ with FapCS was injected at a 10:1 molar ratio (Aβ:FapCS, 100 × 10^−15:10 × 10^−15 M). PBS alone and untreated larvae were used as negative controls. Zebrafish larvae were anesthetized by adding a few drops of tricaine (0.4%) in the petri dish. When larvae stopped to move in response to the tapping stimuli, the larvae were transferred to an injection template made from 1% agarose gel. Microinjection of Aβ was performed with a calibrated microneedle and pneumatic microinjection system (PV830 WPI), under a stereomicroscope. The injection pressure was set to 20 psi, the injection volume was 10 nL, and the injections were made with a micromanipulator. The tip of the needle was inserted into the ventricular space of larvae and penetration across the soft skin of dorsal tissue (central meeting point of both telencephalons) was not more than 0.3 mm. After microinjection, the larvae were transferred to the fresh Holtfreter's buffer in petri dish and incubated at 28 ± 0.5 °C for further observation.
To monitor Aβ fibrillization in the brain of zebrafish larvae, the Aβ or Aβ + FapCS injected larvae were further injected with Congo red 2 days or one week posttreatment. Congo red (100 × 10^−15 M) was injected to the cerebroventricular space of the zebrafish larvae and placed back in Holtfreter's buffer (1 h) to allow staining of Aβ plaques in the brain tissues of larvae and elimination of excess dye. Whole mount imaging of zebrafish larvae was performed via the brightfield and red fluorescence channels of a fluorescence microscope. All images were captured under the same exposure and intensity settings of the microscope. Relative red fluorescence intensities were measured from the images by using Fiji ImageJ and represented as fraction of 1. Aβ at one week was considered as a positive control (100% or fraction 1) while buffer only was considered as a negative control (0% or fraction 0).

adult zebrafish brain = assay: TUNEL assay in brain of adult zebrafish; format: in vivo, zebrafish (AB, Danio rerio); settings: for TUNEL assay, DNA damage / cell death (in words): n = 3
Description: Adult zebrafish (10 months) were employed for the study. Prior to microinjection, adult zebrafish were anesthetized by placing them in a beaker filled with ice‐chilled tricaine (0.01% in Holtfreter's buffer) for 20 s. The samples of Aβ alone and Aβ with FapCS or bacterial biofilm fragments were injected to the cerebroventricular space of adult fish with a 1 µL Hamilton glass syringe. The concentration of the Aβ peptide was 40 × 10^−6 M (in PBS, pH 7.4) while FapCS or biofilm fragments were included at a 10:1 ratio (Aβ:FapCS or biofilm fragments). The needle penetrated between left and right telencephalon for not more than 1 mm and injection volume was 1 µL. The syringe was washed with ethanol and PBS in between the injections. The injections were made under a stereomicroscope and fish were held in place with forceps. After microinjection, the fish was placed back in the water tank for recovery.
The deposition of Aβ, depletion of synaptophysin positive cells and TUNEL assay were measured by IHC. The adult fish, at 4 d or 2 weeks postinjection with Aβ and Aβ with FapCS or biofilm fragments, were euthanized by placing in ice‐chilled tricaine (0.4% in Holtfreter's buffer) for 1 min. The head of the fish was separated at pectoral fin point with a sharp blade and fixed in paraformaldehyde as described in the “Animal husbandry and ethics statement” section. The fixed heads were dehydrated by dipping in gradual concentration of ethanol, i.e., 20%, 40%, 60%, 80%, and 100% with 10 min at each step. The heads were treated with 20% sucrose overnight, mounted with Tissue Trek OCT mounting medium at −20 °C. The heads were then sectioned into […] section with a cryostat. The sections were mounted on a gelatinized glass slide and immunostained with antibodies. The sections were dried, washed thrice in PBS (pH 7.4), and TritonX‐100 (0.05% in PBS) for 5 min each. […] The sections were imaged by a fluorescence microscope and fluorescence intensities were measured from the images with Fiji ImageJ analysis.

amyloid beta [Aβ]
larval swimming behavior (in words) (zebrafish larvae [1]): slightly lower movement frequency
TEM observation (Aβ): prefibrillary oligomers
Congo red fluorescence / Aβ fibrillization in larval brain (in words) (zebrafish larvae [2]): no fibrillization was observed
TUNEL assay, DNA damage / cell death (in words) (adult zebrafish brain; 2 weeks postinjection): neuronal cell death; also recorded: DNA damage per the TUNEL assay
TUNEL assay, DNA damage / cell death (in words) (adult zebrafish brain; 4 d postinjection): negative TUNEL assay

B1: FapCS: FapC seeds obtained by sonication of mature FapC fibrils (P. aeruginosa) (protein)
chain: GNEGGWHPPKPNPQSNNKGGATALVVDTQQNYNNKVSNFGTLNNASVSGSIKDASGNVGVNVAAGDNNQQANAAALASADASFVFGTATASTSVLQSGYGNTLNNYSNPNTASLSNSANNVSGNLGVNVAAGNFNQQKNDLAAAVSNGQYSTAGSAASQTSTGNTTVNSANYAYGGTYVSLKLNADGSYKGTSDQIGDVYLDTWEGQTHPGGSNTGHIDVDSQAQGAKDLNHDGGAFAFKEKGDVDLKGTVSGFIPAIVGFKTPVTNNASLSNSLQNVSGNVGVNIAAGGGNQQSNSLSIAAGCSSCPAGGESLGF
larval swimming behavior (in words) (zebrafish larvae [1]): significantly aggravated (**, P < 0.005) Aβ toxicity and reduced the movement frequency and total travel distance
TEM observation (Aβ): appeared to adsorb onto the growing Aβ fibers
Congo red fluorescence / Aβ fibrillization in larval brain (in words) (zebrafish larvae [2]): insignificant fluorescence was observed; also recorded: did not show any retention of Congo red fluorescence in the brain
Congo red fluorescence in larval brain (in words) (zebrafish larvae [2]; one week postinjection, Figure S12A): insignificant fluorescence was observed
DNA damage / toxicity (in words) (adult zebrafish brain; FapCS alone, 4 × 10^−6 M, Figure S13): no DNA damage; also recorded: non‐toxic nature
